One block for each molecule: values may come before it.
Tests used:
ATPTT1 = target: T1, ATPTT1 (Tetrahymena thermophila, UniProt I7LVQ8); assay: cryo-EM structure; format: binding; conditions: co-purified native cofactor in pocket of two Rossmann folds; oxidation state not stated
T1 construct: gene TTHERM_00137990; 55-kDa Fo-wing subunit of native mitochondrial ATP synthase dimer, purified in digitonin from T. thermophila mitochondria
T1 sequence (I7LVQ8 1-480): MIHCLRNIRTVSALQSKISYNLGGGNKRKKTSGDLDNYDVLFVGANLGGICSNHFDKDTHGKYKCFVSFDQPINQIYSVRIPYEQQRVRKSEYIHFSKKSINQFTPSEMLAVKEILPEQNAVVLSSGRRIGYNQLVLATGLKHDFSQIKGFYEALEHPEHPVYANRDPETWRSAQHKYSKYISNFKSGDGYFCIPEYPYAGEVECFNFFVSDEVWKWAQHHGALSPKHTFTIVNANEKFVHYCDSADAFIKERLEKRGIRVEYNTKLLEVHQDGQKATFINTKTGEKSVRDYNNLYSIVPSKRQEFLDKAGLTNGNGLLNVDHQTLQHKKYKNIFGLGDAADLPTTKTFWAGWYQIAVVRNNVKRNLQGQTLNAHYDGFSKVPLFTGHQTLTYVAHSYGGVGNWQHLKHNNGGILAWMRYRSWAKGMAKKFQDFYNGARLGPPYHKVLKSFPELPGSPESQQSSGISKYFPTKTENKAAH

[1] = target: F1 inhibitor protein IF1 (Tetrahymena thermophila (endogenous in its mitochondria)); assay: cryo-EM structure; native IF1-inhibited ATP synthase dimer purified from T. thermophila mitochondria in digitonin (25 mM Hepes/KOH pH 7.5, 25 mM KCl, 5 mM MgCl2, 0.1% w/v digitonin); 2.7 Å overall, masked refinements 2.5-3.1 Å
[2] = target: type III mitochondrial F1Fo-ATP synthase (monomer) in complex with IF1 (Tetrahymena thermophila (endogenous in its mitochondria)) (UniProt Q951C1); assay: as above
[3] = target: type III mitochondrial F1Fo-ATP synthase (monomer) in complex with IF1 (Tetrahymena thermophila (endogenous in its mitochondria)) (UniProt Q951C1); assay: cryo-EM structure; native ATP synthase tetramer particles of the same sample; 3.3 Å overall, Fo tetramer membrane region 3.1 Å; two dimer models refined into the Fo-tetramer map
[4] = target: the molecule itself; assay: cryo-EM structure; native IF1-inhibited ATP synthase dimer purified from T. thermophila mitochondria in digitonin (25 mM Hepes/KOH pH 7.5, 25 mM KCl, 5 mM MgCl2, 0.1% w/v digitonin); 2.7 Å overall, masked refinements 2.5-3.1 Å

Molecule: NC(=O)c1ccc[n+]([C@@H]2O[C@H](COP(=O)([O-])OP(=O)(O)OC[C@H]3O[C@@H](n4cnc5c(N)ncnc54)[C@H](O)[C@@H]3O)[C@@H](O)[C@H]2O)c1 [NAD]
cryo-EM structure (ATPTT1): in ATPTT1 the binding pocket formed by two Rossmann folds contains the co-factor

stoichiometry N [1]: 2
Molecule: F1 inhibitor protein IF1 (natural protein)

stoichiometry N [2]: 2
stoichiometry N [3]: 4
Molecule: type III mitochondrial F1Fo-ATP synthase (monomer) in complex with IF1 (from UniProt Q951C1 1-446)

B1: ATP synthase subunit-a (natural protein, UniProt Q951C1 1-446, looked up)
chain: MGRENVLPVHNDVYEDFVFTTPYFQPESTFKSVPKLFSDILLGGVEWVYTTSESVLAYDYKLWYLWSGVSNLDESFDMFFNQYWALSLSTSVFQLFYAVILDRYLSVLFQNTPYTNDWFRMMLHSKETALIWLYHPELSWHINGLNQFFTYFYGGILEFVYFDKSNPDMCILVHTLWIHLLILFLIFTGFVTILFSFYGNPNTEENTIDSDYLAASGTVEAEKEITSIDDYLGLVFAIAYVFGVFFYVHGWTSMLSHAVLLLSCYSIIIMFLFILGMPTLLLYDFGIFFLAYLKGAGKYISSVAEMMFDYTACLVFYIRILAQWIRVVLMVVTFISLSHYVSDFDITNSALIGSENQSDSMNELNTNFSMTYYILTVLPGKFIYWIYEILHTFFVVCSQFVAFFAIVFWLFLFLYTFFIIEKHEDFFSKKREERKKKLKELWNLKN
notes: ATP synthase subunit a, Tetrahymena thermophila; overall length of 446 amino acids, with 170- and 38-amino acid N- and C-terminal extensions; source: endogenous, purified from T. thermophila mitochondria within the ATP synthase (digitonin, sucrose cushion, Superose 6)
binding result [4]: binds
